Experimental data taken from patent US20200317817A1 (XOMA US, published 2020).
Residue numbers refer to the chain shown, from its start.

T1: human PTH1R on Saos-2 cells (endogenous) (human, UniProt Q03431 27-593)
T1 sequence (looked up): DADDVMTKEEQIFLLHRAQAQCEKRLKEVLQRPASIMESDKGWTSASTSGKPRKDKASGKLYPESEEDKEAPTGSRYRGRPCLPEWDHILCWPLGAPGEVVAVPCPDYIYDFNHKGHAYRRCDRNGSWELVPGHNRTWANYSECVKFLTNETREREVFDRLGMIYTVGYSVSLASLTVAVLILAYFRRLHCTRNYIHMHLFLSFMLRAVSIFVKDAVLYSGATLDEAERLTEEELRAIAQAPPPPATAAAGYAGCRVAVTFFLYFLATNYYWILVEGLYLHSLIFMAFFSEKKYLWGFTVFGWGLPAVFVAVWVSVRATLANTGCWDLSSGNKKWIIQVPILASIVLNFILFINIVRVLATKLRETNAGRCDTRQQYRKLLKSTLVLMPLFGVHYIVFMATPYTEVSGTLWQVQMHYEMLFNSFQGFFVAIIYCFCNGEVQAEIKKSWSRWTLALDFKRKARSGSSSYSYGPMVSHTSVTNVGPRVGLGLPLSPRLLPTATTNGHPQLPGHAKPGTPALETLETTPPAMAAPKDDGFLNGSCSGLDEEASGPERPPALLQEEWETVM

T2: rat PTH1R on UMR106 cells (rat, UniProt P25961 27-591)
T2 sequence (looked up): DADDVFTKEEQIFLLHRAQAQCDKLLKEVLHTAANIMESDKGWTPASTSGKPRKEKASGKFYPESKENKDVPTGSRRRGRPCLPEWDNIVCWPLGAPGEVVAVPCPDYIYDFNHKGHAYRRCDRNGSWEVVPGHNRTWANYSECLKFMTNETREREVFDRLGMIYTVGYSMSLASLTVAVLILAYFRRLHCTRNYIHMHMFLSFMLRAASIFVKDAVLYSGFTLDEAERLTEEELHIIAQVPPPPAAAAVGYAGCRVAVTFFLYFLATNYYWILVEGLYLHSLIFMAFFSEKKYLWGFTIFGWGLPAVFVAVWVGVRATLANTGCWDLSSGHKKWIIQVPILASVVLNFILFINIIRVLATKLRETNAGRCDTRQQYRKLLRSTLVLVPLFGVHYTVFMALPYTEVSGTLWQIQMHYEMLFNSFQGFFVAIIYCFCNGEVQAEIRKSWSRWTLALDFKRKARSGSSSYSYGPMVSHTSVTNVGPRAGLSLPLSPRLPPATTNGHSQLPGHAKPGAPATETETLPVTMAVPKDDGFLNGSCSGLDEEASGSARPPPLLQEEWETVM

T3: mouse PTH1R overexpressed on CHO cells (mouse, UniProt P41593 27-591)
T3 sequence (looked up): T2 sequence (looked up) with S58P, P497L, T518I, T520N, L523I, A528T

T4: human PTH1R overexpressed on CHO cells (human, UniProt Q03431 27-593)
T4 sequence (looked up): T1 sequence (looked up)

T5: recombinant N-terminal extracellular domain of the human PTH1R receptor (human, UniProt Q03431 27-188, limits assumed)
T5 construct: domain: N-terminal extracellular domain; Bought reagent; also called N-ECD PTH1R; PTH1R N-terminal ECD
T5 sequence (looked up): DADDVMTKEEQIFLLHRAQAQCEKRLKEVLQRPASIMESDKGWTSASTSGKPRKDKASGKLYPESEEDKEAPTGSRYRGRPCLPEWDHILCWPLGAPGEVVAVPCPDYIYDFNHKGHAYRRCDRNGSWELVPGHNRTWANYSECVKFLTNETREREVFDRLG

B1: XPA.85.331 (antibody, V domains shown)
VH: QMQLVQSGAEVKKPGSSVKVSCKASGGTFSSYAISWVRQAPGQGLEWMGGIIPIFGTANYAQKFQGRVTITADESTSTAYMELSSLRSEDTAVYYCARGYVVARLWGQGTLVTVSS
VL: DVVMTQSPLSLPVTPGEPASISCRSSQSLLHIDGFNYLQWYLQKPGQSPQLLVHLGSFRASGVPDRFSGSGSGTDFTLEISRVEAEDVGLYYCMQGLQTPPTFGPGTKVEIK
notes: Light-chain-shuffled variant of XPA.85.012
B2: XPA.85.288 (antibody, V domains shown)
VH: B1 VH
VL: DVVMTQTPLSLSVTPGQPASISCKSSQSLLHIDGKTYLYWYLQKSGQSPQLLIYEVSNRFSGVPDTFSGSGSGTDFTLKISRVEAEDVGVYYCMQSLHFPITFGQGTRLEIK
notes: also called Ab288
B3: XPA.85.346 (antibody, V domains shown)
VH: B1 VH
VL: B2 VL with V2I, S22T, Y41F, S45P, S48P, T66R, V90L, F99L
notes: as for B1
B4: XPA.85.342 (antibody, V domains shown)
VH: B1 VH
VL: ETTLTQSPTFMSASVGDRVTITCQASQDINNFLNWYQQKPGKAPKFLIYDASNLEKGVPSRFSGRGSGTEFTLTISSLQPEDIATYYCQQYRDFPLTFGQGTRLEIK
notes: as for B1
B5: XPA.85.345 (antibody, V domains shown)
VH: B1 VH
VL: B4 VL with T9A
notes: as for B1
B6: XPA.85.347 (antibody, V domains shown)
VH: B1 VH
VL: DIVMTQTPLSLSVTPGQPASISCKSSQSLFHDHGRTHLSWYLQKPGQPPQLLIFEASNRFSGVPDRFSGSGSGTDFTLKISRVEAEDVGVYYCMQGIHLPPAFGGGTKLEIK
notes: as for B1
B7: XPA.85.326 (antibody, V domains shown)
VH: B1 VH
VL: B2 VL with V2I, K35L, S45P, S48P, N58H, P64S, T66K, K79T, F99L
notes: as for B1
B8: XPA.85.327 (antibody, V domains shown)
VH: B1 VH
VL: B2 VL with V2I, S22T, K35N, K44R, S45P, S48P, V56I, T66R
notes: Light-chain-shuffled variant of XPA.85.012; also called XPA.327

Molecular target: T1, human PTH1R on Saos-2 cells (endogenous)
Assay: cell-based or functional assay

% inhibition of cAMP accumulation at 1 µM PTH(1-34), 267 nM IgG [%]	% inhibition of cAMP accumulation at 1 µM PTHrP(1-34), 267 nM IgG [%]	Binder
67	72	B1
79	79	B2
72	75	B3
0	17	B4

Molecular target: T2, rat PTH1R on UMR106 cells
Assay: cell-based or functional assay

% inhibition of cAMP accumulation at 1 µM PTH(1-34), 267 nM IgG [%]	% inhibition of cAMP accumulation at 1 µM PTHrP(1-34), 267 nM IgG [%]	Binder
42	37	B1
73	45	B2
40	31	B3
6	0	B4

Molecular target: T3, mouse PTH1R overexpressed on CHO cells
Assay: cell-based or functional assay

IC50, inhibition of PTHrP(1-34)-induced cAMP accumulation [nM]	Binder
2.53	B5
2.9	B6
3.2	B1
3.57	B3

Molecular target: T4, human PTH1R overexpressed on CHO cells
Assay: cell-based or functional assay

IC50, inhibition of PTH(1-34)-induced cAMP accumulation [nM]	IC50, inhibition of PTHrP(1-34)-induced cAMP accumulation [nM]	IC50, inhibition of PTH(1-34)-induced cAMP accumulation (curve does not reach a plateau) [nM]	Binder
14.2	12.1	–	B5
14.2	8.86	–	B1
–	14.6	29.9	B3

Molecular target: T5, recombinant N-terminal extracellular …
Assay: SPR, IgG captured, ECD injected
Description: An anti-human IgG-Fc CMS sensor chip (GE Healthcare) was prepared using standard amine coupling as described by the manufacturer's protocol for the capture Ab on a BIACORE 4000 system (GE Healthcare). Briefly, the chip surface was activated with a 10 minute injection at 10 μL/minute of a freshly mixed 1:1 solution of 0.1 M N-Hydroxysuccinimide (NHS) and 0.4 M 1-Ethyl-3-(3-dimethylaminopropyl) carbodiimide hydrochloride (EDC). Following the activation injection, 15 ug/mL anti-human IgG-Fc antibody in acetate pH 4.5 was injected at 10 μL/minute for 10 minutes to achieve a high density capture surface. 7 minutes of 1M Ethanolamine hydrochloride-NaOH pH 8.5 was injected to block the surface. The NHS, EDC, and Ethanolamine used were from the BIACORE Amine Coupling Kit.
Kinetic Analysis was performed using HBS-EP+(Teknova) with 2.5 mg/mL BSA (Sigma Aldrich, St. Louis Mo.). Antibodies were diluted to 0.5 μg/mL and captured to achieve a surface density of 100 to 200 RU. […] Injections were performed at 30 μL/minute for 240 seconds with a 360 second dissociation time. Regeneration was then performed with one 60 second injection 3M MgCl.
The data were analyzed using BIACORE 4000 Evaluation Software and was double referenced by subtracting both the blank flow cell data and the averaged bracketing blank injections. The data was fit by simultaneously fitting the an off-rate (kd) and on-rate (kₐ), and calculating the KD as KD=kd/kₐ.

Kd [nM]	koff [s⁻¹]	kon [M⁻¹ s⁻¹]	Binder
0.19	7.3e-05	380000	B7
0.56	0.0013	2.3e+06	B5
0.87	0.00077	880000	B6
0.22	0.00035	1.6e+06	B1
0.18	0.00014	780000	B2
0.15	0.00011	740000	B8
0.31	0.00014	450000	B3
0.52	0.0012	2.3e+06	B4

Molecular target: T1, human PTH1R on Saos-2 cells (endogenous)
Assay: cell-based or functional assay
Remark: another data set of the same source

fold shift of the PTH (1-34) dose response, M-CSF secretion by Saos-2 cells [fold]	Binder
> 10	B1
> 10	B2
> 10	B8
> 10	B3
